Test results taken from article PMC12416549 (2024).
Substitutions are numbered along the chain they refer to. Names may count otherwise.

T1: TNFR1 (Homo sapiens, UniProt P19438)
T1 chain: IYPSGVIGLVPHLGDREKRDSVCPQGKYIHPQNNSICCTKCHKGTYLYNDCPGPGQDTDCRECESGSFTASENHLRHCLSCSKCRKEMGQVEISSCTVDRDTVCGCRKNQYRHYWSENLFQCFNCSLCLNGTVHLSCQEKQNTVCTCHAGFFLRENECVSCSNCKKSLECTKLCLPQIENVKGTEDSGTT

B1: A105K (designed binder)
chain: MTLQELLREEALRRAEAEAFRYALELLAEKFPEQKEYLLDLAEEIESQIRSLSGVDVEDVRKFLDKEWAWVKELLAEHPAELAEVEAARAARLAELRAEVEAKVKA
B2: K35G (designed binder)
chain: B1 chain with K35G, K105A
B3: G54T (designed binder)
chain: B1 chain with G54T, K105A
B4: D59V (designed binder)
chain: B1 chain with D59V, K105A
B5: R97H (designed binder)
chain: B1 chain with R97H, K105A
B6: L26D (designed binder)
chain: B1 chain with L26D, K105A
B7: Q48G (designed binder)
chain: B1 chain with Q48G, K105A
B8: G54W (designed binder)
chain: B1 chain with G54W, K105A
B9: W70P (designed binder)
chain: B1 chain with W70P, K105A
B10: H78N (designed binder)
chain: B1 chain with H78N, K105A
B11: Q34V (designed binder)
chain: B1 chain with Q34V, K105A
B12: E95T (designed binder)
chain: B1 chain with E95T, K105A
B13: D65M (designed binder)
chain: B1 chain with D65M, K105A
B14: L39P (designed binder)
chain: B1 chain with L39P, K105A
B15: L75I (designed binder)
chain: B1 chain with L75I, K105A
B16: A106V (designed binder)
chain: B1 chain with K105A, A106V
B17: V55P (designed binder)
chain: B1 chain with V55P, K105A
B18: E67R (designed binder)
chain: B1 chain with E67R, K105A
B19: R61Q (designed binder)
chain: B1 chain with R61Q, K105A
B20: L7Y (designed binder)
chain: B1 chain with L7Y, K105A
B21: Y22G (designed binder)
chain: B1 chain with Y22G, K105A
B22: R61K (designed binder)
chain: B1 chain with R61K, K105A
B23: M1P (designed binder)
chain: B1 chain with M1P, K105A
B24: L6K (designed binder)
chain: B1 chain with L6K, K105A
B25: E46H (designed binder)
chain: B1 chain with E46H, K105A
B26: W68L (designed binder)
chain: B1 chain with W68L, K105A
B27: E33H (designed binder)
chain: B1 chain with E33H, K105A
B28: L26F (designed binder)
chain: B1 chain with L26F, K105A
B29: W70K (designed binder)
chain: B1 chain with W70K, K105A
B30: L26K (designed binder)
chain: B1 chain with L26K, K105A
B31: V104D (designed binder)
chain: B1 chain with V104D, K105A
B32: V104N (designed binder)
chain: B1 chain with V104N, K105A
B33: A83G (designed binder)
chain: B1 chain with A83G, K105A
B34: R14P (designed binder)
chain: B1 chain with R14P, K105A
B35: F63D (designed binder)
chain: B1 chain with F63D, K105A
B36: V57K (designed binder)
chain: B1 chain with V57K, K105A
B37: S47L (designed binder)
chain: B1 chain with S47L, K105A
B38: E99V (designed binder)
chain: B1 chain with E99V, K105A
B39: A91T (designed binder)
chain: B1 chain with A91T, K105A
B40: A94T (designed binder)
chain: B1 chain with A94T, K105A
B41: E86G (designed binder)
chain: B1 chain with E86G, K105A
B42: R14K (designed binder)
chain: B1 chain with R14K, K105A
B43: E36V (designed binder)
chain: B1 chain with E36V, K105A
B44: K62T (designed binder)
chain: B1 chain with K62T, K105A
B45: L64P (designed binder)
chain: B1 chain with L64P, K105A
B46: L12C (designed binder)
chain: B1 chain with L12C, K105A
B47: A17M (designed binder)
chain: B1 chain with A17M, K105A
B48: E101G (designed binder)
chain: B1 chain with E101G, K105A
B49: S51G (designed binder)
chain: B1 chain with S51G, K105A
B50: E29Q (designed binder)
chain: B1 chain with E29Q, K105A
B51: S47C (designed binder)
chain: B1 chain with S47C, K105A
B52: L41G (designed binder)
chain: B1 chain with L41G, K105A
B53: L39Y (designed binder)
chain: B1 chain with L39Y, K105A
B54: L64D (designed binder)
chain: B1 chain with L64D, K105A
B55: A80F (designed binder)
chain: B1 chain with A80F, K105A
B56: E99S (designed binder)
chain: B1 chain with E99S, K105A
B57: E58M (designed binder)
chain: B1 chain with E58M, K105A
B58: E73T (designed binder)
chain: B1 chain with E73T, K105A
B59: E10M (designed binder)
chain: B1 chain with E10M, K105A

Molecular target: T1, TNFR1
Assay: yeast display SC50

apparent Kd (screen)	Binder
0.869 nM	B1
0.49 nM	B2
0.446 nM	B3
0.653 nM	B4
0.593 nM	B5
0.956 nM	B6
0.718 nM	B7
2.73 nM	B8
11.4 nM	B9
0.539 nM	B10
0.405 nM	B11
0.539 nM	B12
0.718 nM	B13
5.84 nM	B14
0.79 nM	B15
0.653 nM	B16
0.653 nM	B17
8.56 nM	B18
0.539 nM	B19
12.5 nM	B20

apparent Kd (screen)	Binder
0.653 nM	B21
0.446 nM	B22
0.446 nM	B23
7.07 nM	B24
0.539 nM	B25
0.539 nM	B26
0.49 nM	B27
0.593 nM	B28
5.84 nM	B29
0.718 nM	B30
0.718 nM	B31
0.593 nM	B32
0.539 nM	B33
0.49 nM	B34
7.07 nM	B35
1.16 nM	B36
0.653 nM	B37
0.446 nM	B38
0.593 nM	B39
0.539 nM	B40

apparent Kd (screen)	Binder
0.539 nM	B41
0.49 nM	B42
1.05 nM	B43
0.539 nM	B44
3.99 nM	B45
0.79 nM	B46
0.446 nM	B47
0.49 nM	B48
1.69 nM	B49
0.539 nM	B50
0.718 nM	B51
12.5 nM	B52
1.69 nM	B53
26.9 nM	B54
0.539 nM	B55
0.956 nM	B56
0.49 nM	B57
0.718 nM	B58
2.48 nM	B59
